Reference: US20240141072A1 (published 2024)
Like-named read-outs stand apart in the source and are kept apart here.

B1: cynomolgus DLL3 protein (Example 6) (ligand)
chain: AGVFELQIHSFGPGPGGAPRSPYSARGPCRLFFRVCLKPGLSEEAAESPCALGAALSARGPVYTEQPEAPAPDLPLPNGLLQVPFRDAWPGTFSLIIETWREELGDQIGGPAWSLLARVTRRRRLAAGGPWAGDIQRAGAWELRFSYRARCELPAVGTACTRLCRPRSASRCGPGLRPCAPLEDECEAPPVCRAGCSLEHGFCEQPGECRCLEGWTGPLCMVPVSTSSCLGLRGPSSTTTGCLVPGPGPCDGNPCANGGSCSETPGSFECTCPRGFYGLRCEVSGVTCADGPCFNGGLCVGGADPDSAYICHCPPGFQGSNCEKRVDRCSLQPCRNGGLCLDLGHALRCRCRAGFAGPRCEHDLNDCAGRACANGGTCVEGGGAHRCSCALGFGGRDCRERADPCAARPCAHGGRCYAHFSGLVCACAPGYMGARCEFPVHPDGVSALPAAPPGLRPGDPQRYP
notes: also called cyDLL3
B2: human DLL3 protein (Example 6) (ligand)
chain: AGVFELQIHSFGPGPGPGAPRSPCSARLPCRLFFRVCLKPGLSEEAAESPCALGAALSARGPVYTEQPGAPAPDLPLPDGLLQVPFRDAWPGTFSFIIETWREELGDQIGGPAWSLLARVAGRRRLAAGGPWARDIQRAGAWELRFSYRARCEPPAVGTACTRLCRPRSAPSRCGPGLRPCAPLEDECEAPLVCRAGCSPEHGFCEQPGECRCLEGWTGPLCTVPVSTSSCLSPRGPSSATTGCLVPGPGPCDGNPCANGGSCSETPRSFECTCPRGFYGLRCEVSGVTCADGPCFNGGLCVGGADPDSAYICHCPPGFQGSNCEKRVDRCSLQPCRNGGLCLDLGHALRCRCRAGFAGPRCEHDLDDCAGRACANGGTCVEGGGAHRCSCALGFGGRDCRERADPCAARPCAHGGRCYAHFSGLVCACAPGYMGARCEFPVHPDGASALPAAPPGLRPGDPQRYL
notes: also called huDLL3
B3: 1H012 anti-DLL3 trispecific protein (other)
chain: EVQLVESGGGLVQPGGSLTLSCVASGSTSSINAMGWYRRAPGKQRELVAGISSDGSKVYVDSVKGRFTISRDNAKNSVYLQMNSLRAEDTAVYYCYYFRTVSGSSMPYWGQGTLVTVSS
notes: also called 1H12; not shown: linker 1808, anti-albumin sdAb, linker 1808, anti-CD3 fragment, His6 1819

Experiments:
[1] = biological target: T1, anti-DLL3 trispecific protein with DLL3 binding domain 51H05; test: Octet BLI; biotinylated purified CHO trispecific on streptavidin tips; 60, 20, 6.67, 2.22 nM
T1 construct: trispecific, one chain; also called 51H5

[2] = biological target: T2, anti-DLL3 trispecific protein containing the parental DLL3 binder DH6; test: as above
T2 construct: trispecific, one chain

[3] = biological target: T3, anti-DLL3 trispecific protein with DLL3 binding domain 51G02; test: as above
T3 construct: trispecific, one chain; also called 51G2

[4] = biological target: T4, anti-DLL3 trispecific protein with DLL3 binding domain 52D04; test: as above
T4 construct: trispecific, one chain; same domain order as the TAC protein m79; also called 52D4

[5] = biological target: T5, anti-DLL3 trispecific protein with DLL3 binding domain 52C04; test: as above
T5 construct: trispecific, one chain; also called 52C4

[6] = biological target: T6, anti-DLL3 trispecific protein with DLL3 binding domain 51F03; test: as above
T6 construct: trispecific, one chain; also called 51F3

[7] = biological target: T7, anti-DLL3 trispecific protein with DLL3 binding domain 51G10; test: as above
T7 construct: trispecific, one chain

[8] = biological target: T8, anti-DLL3 trispecific protein with DLL3 binding sequence 51X5; test: as above
T8 construct: trispecific, one chain

[9] = biological target: T9, anti-DLL3 trispecific protein with DLL3 binding domain 51A05; test: as above
T9 construct: trispecific, one chain; also called 51A5

[10] = biological target: T10, anti-DLL3 trispecific protein with DLL3 binding domain 52B01; test: as above
T10 construct: trispecific, one chain; also called 52B1

[11] = biological target: T11, biotinylated human DLL3 protein expressed as a human IgG1 fusion protein (human, UniProt Q9NYJ7 27-492, limits assumed, biotinylated); test: Octet BLI, single 50 nM
T11 sequence: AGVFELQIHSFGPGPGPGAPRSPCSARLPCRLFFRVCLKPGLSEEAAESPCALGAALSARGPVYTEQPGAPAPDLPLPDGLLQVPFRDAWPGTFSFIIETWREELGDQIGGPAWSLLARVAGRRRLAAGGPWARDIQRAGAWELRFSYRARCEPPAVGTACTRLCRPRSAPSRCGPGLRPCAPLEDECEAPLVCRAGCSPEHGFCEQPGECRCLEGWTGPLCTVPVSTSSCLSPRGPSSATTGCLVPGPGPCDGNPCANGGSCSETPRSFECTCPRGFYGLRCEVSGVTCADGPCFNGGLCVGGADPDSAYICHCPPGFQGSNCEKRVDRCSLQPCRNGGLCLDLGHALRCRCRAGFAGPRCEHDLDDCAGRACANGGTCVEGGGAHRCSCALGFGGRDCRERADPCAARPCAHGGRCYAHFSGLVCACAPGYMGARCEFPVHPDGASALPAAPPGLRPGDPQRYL
Method in brief: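 Affinities reflect binding of the trispecific constructs, supplied as conditioned medium of known protein concentration rather than purified material, to immobilised human DLL3 fusion protein.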

[12] = biological target: T12, human DLL3 on DLL3-expressing tumor cell lines (human, UniProt Q9NYJ7 27-618); test: cell-based or functional assay
T12 sequence: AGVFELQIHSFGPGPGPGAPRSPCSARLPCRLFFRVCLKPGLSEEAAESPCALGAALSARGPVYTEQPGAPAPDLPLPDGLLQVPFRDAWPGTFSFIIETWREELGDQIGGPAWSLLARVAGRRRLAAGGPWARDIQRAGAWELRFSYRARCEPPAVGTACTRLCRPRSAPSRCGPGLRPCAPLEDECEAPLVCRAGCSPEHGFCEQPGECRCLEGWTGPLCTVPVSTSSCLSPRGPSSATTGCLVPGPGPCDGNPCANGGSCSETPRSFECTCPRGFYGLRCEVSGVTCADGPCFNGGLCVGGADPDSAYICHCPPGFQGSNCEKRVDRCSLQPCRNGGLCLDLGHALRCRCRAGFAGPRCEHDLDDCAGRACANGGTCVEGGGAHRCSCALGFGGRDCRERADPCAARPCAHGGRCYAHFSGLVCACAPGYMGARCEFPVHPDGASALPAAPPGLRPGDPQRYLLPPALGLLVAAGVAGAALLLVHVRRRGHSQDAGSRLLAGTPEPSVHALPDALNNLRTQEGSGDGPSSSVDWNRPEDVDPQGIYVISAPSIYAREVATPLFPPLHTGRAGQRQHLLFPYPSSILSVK

[13] = biological target: T11, biotinylated human DLL3 protein …; test: Octet BLI, 60/20/6.67/2.22 nM
Method: Using the conditioned medium with known concentrations of the anti-DLL3 trispecific proteins, the binding affinities of the anti-DLL3 trispecific proteins toward human DLL3 protein were measured using a method where biotinylated version of human DLL3 protein were expressed as a human IgG1 fusion protein, and the binding affinity measurement was carried out in an Octet instrument with streptavidin tips.

[14] = biological target: T12, human DLL3 on DLL3-expressing tumor …; test: cell-based or functional assay; remark: listed apart in the source
cynomolgus DLL3 = biological target: T13, cynomolgus DLL3 (cynomolgus, UniProt A0A2K5WSR1 27-490); test: Octet BLI, single 60 nM
T13 construct: also called cyDLL3
T13 sequence: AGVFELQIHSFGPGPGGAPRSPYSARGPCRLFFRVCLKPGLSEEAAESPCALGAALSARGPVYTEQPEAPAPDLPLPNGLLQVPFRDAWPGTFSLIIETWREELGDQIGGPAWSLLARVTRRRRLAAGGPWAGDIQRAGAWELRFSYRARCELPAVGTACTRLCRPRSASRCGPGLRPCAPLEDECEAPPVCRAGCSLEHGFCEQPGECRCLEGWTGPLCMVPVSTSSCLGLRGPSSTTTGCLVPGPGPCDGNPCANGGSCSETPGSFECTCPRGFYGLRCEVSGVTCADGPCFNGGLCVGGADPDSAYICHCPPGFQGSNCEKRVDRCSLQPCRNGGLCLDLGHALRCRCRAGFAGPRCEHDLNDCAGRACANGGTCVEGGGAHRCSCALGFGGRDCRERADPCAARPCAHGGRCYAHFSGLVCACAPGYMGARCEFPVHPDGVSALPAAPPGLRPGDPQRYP

[15] = biological target: T12, human DLL3 on DLL3-expressing tumor …; test: cell-based or functional assay; remark: listed apart in the source

T6 sequence (chain, as listed by the source): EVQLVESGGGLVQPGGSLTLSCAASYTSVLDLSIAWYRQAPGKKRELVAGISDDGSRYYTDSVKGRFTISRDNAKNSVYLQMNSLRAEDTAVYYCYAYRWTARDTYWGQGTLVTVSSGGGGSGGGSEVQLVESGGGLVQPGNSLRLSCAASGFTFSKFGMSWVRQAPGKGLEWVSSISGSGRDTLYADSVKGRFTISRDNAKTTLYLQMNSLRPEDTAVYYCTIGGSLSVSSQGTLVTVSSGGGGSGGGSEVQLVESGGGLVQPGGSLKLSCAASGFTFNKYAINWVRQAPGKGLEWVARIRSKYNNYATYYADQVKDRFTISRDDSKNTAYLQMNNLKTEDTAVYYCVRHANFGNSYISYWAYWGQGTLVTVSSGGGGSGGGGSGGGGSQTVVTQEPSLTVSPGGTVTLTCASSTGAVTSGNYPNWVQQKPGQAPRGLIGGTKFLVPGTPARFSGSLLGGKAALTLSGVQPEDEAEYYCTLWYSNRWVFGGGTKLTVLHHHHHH
T2 sequence (chain, as listed by the source): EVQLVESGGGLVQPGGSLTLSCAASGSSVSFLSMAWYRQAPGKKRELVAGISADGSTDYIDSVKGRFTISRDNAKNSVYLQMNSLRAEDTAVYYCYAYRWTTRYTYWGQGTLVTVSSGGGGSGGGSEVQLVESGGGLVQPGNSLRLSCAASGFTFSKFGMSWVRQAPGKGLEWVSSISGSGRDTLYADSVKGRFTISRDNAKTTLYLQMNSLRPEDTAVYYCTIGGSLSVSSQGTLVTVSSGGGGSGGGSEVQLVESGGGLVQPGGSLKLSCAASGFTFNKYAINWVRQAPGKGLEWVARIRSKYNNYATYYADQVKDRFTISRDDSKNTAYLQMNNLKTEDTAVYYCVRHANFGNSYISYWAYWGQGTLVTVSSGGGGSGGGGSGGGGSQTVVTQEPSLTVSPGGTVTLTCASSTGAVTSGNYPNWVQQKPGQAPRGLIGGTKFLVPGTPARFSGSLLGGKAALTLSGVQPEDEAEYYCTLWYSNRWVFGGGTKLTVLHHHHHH
T5 sequence (chain, as listed by the source): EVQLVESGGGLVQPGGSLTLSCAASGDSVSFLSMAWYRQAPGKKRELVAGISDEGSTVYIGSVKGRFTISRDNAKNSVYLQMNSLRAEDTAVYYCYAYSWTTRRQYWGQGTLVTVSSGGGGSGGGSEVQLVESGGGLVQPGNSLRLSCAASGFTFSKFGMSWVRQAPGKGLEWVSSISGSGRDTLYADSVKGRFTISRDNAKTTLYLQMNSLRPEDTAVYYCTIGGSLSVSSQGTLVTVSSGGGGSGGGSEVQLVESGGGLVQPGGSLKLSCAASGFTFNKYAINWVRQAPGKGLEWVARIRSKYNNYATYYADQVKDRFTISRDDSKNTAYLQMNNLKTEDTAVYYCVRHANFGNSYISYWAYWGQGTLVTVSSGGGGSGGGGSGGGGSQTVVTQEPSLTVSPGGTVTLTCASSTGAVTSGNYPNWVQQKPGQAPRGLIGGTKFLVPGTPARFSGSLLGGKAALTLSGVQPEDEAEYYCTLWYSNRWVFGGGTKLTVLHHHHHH
T9 sequence (chain, as listed by the source): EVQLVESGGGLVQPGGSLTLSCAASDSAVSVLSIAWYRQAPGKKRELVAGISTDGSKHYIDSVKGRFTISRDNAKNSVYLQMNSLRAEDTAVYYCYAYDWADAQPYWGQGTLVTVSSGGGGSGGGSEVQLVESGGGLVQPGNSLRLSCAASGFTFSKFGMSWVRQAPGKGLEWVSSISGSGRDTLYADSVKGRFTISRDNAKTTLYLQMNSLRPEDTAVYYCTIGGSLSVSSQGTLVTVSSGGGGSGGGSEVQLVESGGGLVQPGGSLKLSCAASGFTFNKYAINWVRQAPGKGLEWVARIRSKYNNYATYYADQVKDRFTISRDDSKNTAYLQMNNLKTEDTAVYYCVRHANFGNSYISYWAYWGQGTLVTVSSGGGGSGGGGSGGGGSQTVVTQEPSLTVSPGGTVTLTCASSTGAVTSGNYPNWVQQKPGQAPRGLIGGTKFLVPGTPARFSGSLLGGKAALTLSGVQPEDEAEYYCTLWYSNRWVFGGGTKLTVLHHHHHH
T4 sequence (chain, as listed by the source): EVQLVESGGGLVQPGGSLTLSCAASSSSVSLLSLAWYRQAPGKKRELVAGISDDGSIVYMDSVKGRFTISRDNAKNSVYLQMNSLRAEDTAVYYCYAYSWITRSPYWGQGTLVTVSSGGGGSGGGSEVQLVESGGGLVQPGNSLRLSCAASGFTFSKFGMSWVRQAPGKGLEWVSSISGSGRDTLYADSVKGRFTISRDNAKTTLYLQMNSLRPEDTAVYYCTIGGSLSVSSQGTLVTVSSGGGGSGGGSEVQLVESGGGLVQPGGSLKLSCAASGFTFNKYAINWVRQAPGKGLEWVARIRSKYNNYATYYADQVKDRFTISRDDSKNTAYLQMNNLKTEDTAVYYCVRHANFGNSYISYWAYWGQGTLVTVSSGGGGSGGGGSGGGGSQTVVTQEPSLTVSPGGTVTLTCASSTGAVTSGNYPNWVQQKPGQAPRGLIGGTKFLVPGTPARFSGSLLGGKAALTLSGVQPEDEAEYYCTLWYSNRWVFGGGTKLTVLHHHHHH
T7 sequence (chain, as listed by the source): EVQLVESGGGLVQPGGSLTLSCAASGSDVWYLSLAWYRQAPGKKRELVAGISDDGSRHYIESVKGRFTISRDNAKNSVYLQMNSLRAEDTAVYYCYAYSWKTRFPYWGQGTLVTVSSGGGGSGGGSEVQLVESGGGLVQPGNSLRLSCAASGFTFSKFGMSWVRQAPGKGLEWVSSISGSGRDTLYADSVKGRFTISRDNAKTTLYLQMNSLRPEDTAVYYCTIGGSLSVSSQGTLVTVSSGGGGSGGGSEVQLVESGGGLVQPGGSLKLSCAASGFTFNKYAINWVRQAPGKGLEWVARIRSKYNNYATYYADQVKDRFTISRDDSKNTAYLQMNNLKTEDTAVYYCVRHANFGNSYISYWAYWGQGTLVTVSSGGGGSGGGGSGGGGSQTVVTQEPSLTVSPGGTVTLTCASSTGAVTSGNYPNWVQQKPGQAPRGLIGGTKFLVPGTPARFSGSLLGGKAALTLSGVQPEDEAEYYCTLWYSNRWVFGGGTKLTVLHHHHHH
T1 sequence (chain, as listed by the source): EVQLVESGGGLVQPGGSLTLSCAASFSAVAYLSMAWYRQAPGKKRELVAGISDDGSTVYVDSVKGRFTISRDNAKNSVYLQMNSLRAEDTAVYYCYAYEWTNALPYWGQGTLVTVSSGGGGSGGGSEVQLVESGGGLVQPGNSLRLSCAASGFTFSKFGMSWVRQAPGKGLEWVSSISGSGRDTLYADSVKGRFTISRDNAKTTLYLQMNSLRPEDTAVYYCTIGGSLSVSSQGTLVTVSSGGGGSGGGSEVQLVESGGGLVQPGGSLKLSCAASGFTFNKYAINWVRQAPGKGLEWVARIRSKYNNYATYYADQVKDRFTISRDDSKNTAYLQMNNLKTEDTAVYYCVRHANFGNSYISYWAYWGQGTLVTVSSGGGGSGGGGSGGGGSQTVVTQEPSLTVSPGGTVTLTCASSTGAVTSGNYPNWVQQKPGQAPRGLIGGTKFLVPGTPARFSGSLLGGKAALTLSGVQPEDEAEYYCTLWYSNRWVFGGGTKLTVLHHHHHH
T3 sequence (chain, as listed by the source): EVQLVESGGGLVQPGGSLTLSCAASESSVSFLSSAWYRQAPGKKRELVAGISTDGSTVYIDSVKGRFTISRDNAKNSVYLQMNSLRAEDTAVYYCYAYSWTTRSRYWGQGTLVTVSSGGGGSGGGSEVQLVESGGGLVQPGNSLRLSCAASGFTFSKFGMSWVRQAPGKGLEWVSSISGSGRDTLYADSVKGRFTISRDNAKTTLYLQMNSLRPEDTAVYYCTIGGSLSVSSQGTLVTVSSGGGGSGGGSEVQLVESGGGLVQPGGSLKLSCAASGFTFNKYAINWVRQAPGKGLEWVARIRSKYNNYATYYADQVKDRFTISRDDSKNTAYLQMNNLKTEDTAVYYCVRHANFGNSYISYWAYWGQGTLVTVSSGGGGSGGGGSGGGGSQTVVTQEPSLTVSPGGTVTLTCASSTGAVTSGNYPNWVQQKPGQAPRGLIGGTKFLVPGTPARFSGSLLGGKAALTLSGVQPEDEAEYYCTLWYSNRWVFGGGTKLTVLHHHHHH
T10 sequence (chain, as listed by the source): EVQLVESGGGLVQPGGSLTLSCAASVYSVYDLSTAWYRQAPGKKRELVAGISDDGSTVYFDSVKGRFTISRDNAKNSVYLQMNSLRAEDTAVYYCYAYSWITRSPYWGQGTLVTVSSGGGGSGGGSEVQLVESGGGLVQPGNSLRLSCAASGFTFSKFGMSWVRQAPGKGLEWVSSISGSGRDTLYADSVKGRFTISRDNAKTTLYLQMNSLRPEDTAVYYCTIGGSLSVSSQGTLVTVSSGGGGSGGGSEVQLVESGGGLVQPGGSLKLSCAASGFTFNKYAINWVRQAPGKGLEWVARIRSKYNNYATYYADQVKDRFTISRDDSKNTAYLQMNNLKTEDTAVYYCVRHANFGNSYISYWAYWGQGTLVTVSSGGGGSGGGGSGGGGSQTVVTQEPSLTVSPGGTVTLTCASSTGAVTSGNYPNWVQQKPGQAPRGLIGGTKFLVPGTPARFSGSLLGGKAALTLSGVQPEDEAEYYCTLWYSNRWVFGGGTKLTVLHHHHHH
T8 sequence (chain, as listed by the source): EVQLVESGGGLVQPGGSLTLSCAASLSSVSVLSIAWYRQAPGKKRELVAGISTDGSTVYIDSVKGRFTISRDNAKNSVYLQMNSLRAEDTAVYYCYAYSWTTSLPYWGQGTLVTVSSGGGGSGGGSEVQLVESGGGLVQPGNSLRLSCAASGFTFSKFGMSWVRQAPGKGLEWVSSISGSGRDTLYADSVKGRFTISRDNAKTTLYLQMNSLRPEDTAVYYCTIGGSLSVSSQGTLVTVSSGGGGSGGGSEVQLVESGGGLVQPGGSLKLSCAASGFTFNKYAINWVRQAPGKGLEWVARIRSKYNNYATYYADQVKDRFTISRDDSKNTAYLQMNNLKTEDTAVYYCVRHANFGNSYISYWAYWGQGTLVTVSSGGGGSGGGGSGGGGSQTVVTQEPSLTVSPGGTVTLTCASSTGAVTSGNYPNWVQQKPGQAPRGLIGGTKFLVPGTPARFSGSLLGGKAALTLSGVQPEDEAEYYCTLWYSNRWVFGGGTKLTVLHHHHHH

Binder | Kd [1] [nM] | Kd [2] [nM] | Kd [3] [nM] | Kd [4] [nM] | Kd [5] [nM] | Kd [6] [nM] | Kd [7] [nM] | Kd [8] [nM] | Kd [9] [nM] | Kd [10] [nM] | Kd [11] [nM] | fold increase in TDCC potency compared to the parental DLL3 binder DH43 [12] [fold] | Kd [13] [nM] | DMS-153 TDCC EC50 [14] [pM] | Kd (cynomolgus DLL3) [nM] | DMS-153 TDCC EC50 [15] [pM]
B1 | 1.6 | 11 | 3.4 | 1.7 | 3 | 2 | 1.4 | 1.5 | 1.6 | 1.9 | – | – | – | – | – | –
B2 | 0.9 | 13.5 | 2 | 0.9 | 2.2 | 1.4 | 0.9 | 1 | 1.2 | 1.1 | – | – | – | – | – | –
B3 | – | – | – | – | – | – | – | – | – | – | 3.5 | > 7 | 2.9 | 63 | 4.3 | 28
